Molecular target: bromodomain of CREB (cyclic-AMP response element binding) binding protein (UniProt Q92793-1)
Experiment: AlphaScreen or HTRF
Conditions: both partners purified

Chain of bromodomain of CREB (cyclic-AMP response element binding) binding protein (Q92793 1081-1197): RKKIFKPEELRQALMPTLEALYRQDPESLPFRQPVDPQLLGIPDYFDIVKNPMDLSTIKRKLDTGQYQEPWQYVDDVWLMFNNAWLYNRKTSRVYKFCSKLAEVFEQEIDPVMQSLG

B1: H3K56(Ac) peptide (peptide)
peptide: ALREIRRYQKSTELLIRKLK
modifications: K(Ac) at peptide position 10 (H3K56); C-terminal K(Biotin)
binding result: binds

Source: PMC3906316 (Journal of Medicinal Chemistry, 2013)
